Entries after “also recorded” stand apart in the source; their conditions may differ.
Assays:
[1] = test system: B cell lymphoma (SU-DHL-6) mouse xenograft tumor tissue; test: Staining of B cell lymphoma mouse xenograft tumor tissue sections; design: species or system human; details: 40 mg/kg IKE once daily IP 14 days
Experimental: Tumor tissues were fixed in 4% paraformaldehyde (PFA) for 24 h at 4° C. followed by washing with PBS three times. The tissues were perfused in 30% sucrose for 24 h at 4° C. for cryo-protection. The samples were embedded in OCT cryostat sectioning medium, and then moved directly into a cryostat. After equilibration of temperature, frozen tumor tissues were cut into 5 μm thick sections. Tissue sections were mounted on to poly-L-lysine coated slides by placing the cold sections onto warm slides. Slides were stored at −80° C. until staining. For staining, slides were warmed to room temperature followed by washing with PBS twice. A hydrophobic barrier pen was used to draw a circle on each slide. The slides were permeabilized with PBS with 0.4% Triton X-100 (PBT) twice before non-specific-binding blocking by incubating the sections with 10% goat serum (ThermoFisher 50197Z) for 30 min at room temperature. […] All images were captured on a Zeiss LSM 800 confocal microscope at Plan-Apochromat 63x/1.40 Oil DIC objective with constant laser intensity for all analyzed samples. The intensity above threshold of the fluorescent signal of the bound antibodies was analyzed using NIH ImageJ software (ImageJ, RRID:SCR_003070). Data were expressed as fold change comparing with the vehicle. […]

[2] = target: T1, transferrin receptor protein 1 (Homo sapiens, UniProt P02786); test: Antigen identification by immunoprecipitation-mass spectrometry; format: binding; details: HT-1080 cell lysate
T1 construct: First, we incubated 3F3-FMA with a cell lysate overnight; endogenous in cells; host or cells: HT-1080 (ATCC CRL-7951)
Experimental: HT-1080 cells were seeded in DMEM (Corning 10-013-CM) and 10% Hi-FBS with 1% penicillin and streptomycin (PS) with 1% MEM Non-Essential Amino Acids Solution (100×) (Thermo Fisher Scientific 11140-076) 16 h prior to use. DMSO or 1 μM of RSL3 was added and incubated for 4 h. Following treatment, the medium was aspirated from each dish and cells were washed twice with PBS. Cells were lysed with 70 μl lysis buffer (RIPA buffer from ThermoFisher, cat. 89900, 1 mM EDTA, 1 mM PMSF, 1× Halt™ protease inhibitor cocktail from ThermoFisher, cat. 78430 and 1× Halt™ phosphatase inhibitor cocktail from ThermoFisher, cat. 78426). Unlysed cells and debris were pelleted for 15 min at 16,000×g at 4° C. The samples were incubated with 10 μg of 3F3 FMA overnight at 4° C. with shaking. […]
Trypsin digestion was performed overnight at 37° C. […] CID fragmentation was applied with 35% collision energy and resulting fragments were detected using the rapid scan rate in the ion trap. […]
Raw mass spectrometric data were analyzed using MaxQuant v.1.6.1.0 (Cox and Mann, 2008) (MaxQuant, RRID:SCR_014485) and employed Andromeda for database search (Cox et al., 2011) at default settings with a few modifications. […]

T1 sequence (P02786 whole entry): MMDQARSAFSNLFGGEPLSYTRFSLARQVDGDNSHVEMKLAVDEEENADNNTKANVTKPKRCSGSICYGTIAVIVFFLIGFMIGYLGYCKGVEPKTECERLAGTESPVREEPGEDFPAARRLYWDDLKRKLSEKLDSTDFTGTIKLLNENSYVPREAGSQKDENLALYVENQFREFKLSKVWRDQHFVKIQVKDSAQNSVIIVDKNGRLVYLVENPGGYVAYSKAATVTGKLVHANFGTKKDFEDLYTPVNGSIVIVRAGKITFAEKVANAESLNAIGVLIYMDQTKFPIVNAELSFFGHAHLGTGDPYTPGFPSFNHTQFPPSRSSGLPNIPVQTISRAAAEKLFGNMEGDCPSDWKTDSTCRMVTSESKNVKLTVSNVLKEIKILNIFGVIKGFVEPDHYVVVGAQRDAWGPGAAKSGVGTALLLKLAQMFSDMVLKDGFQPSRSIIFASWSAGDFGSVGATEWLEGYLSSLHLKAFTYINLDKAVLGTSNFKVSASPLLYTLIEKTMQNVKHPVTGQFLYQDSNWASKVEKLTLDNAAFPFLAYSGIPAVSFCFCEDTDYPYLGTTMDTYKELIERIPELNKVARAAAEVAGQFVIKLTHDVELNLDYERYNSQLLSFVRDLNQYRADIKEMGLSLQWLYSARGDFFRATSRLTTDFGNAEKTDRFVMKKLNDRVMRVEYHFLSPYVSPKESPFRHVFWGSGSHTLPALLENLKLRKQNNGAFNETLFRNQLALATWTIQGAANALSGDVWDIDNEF

amino acid coverage of TfR1 [2]: 53%
confidence identification of transferrin receptor protein 1 as target antigen [2]: 63%
B1: 3F3-FMA: murine monoclonal IgG1 raised against ferroptotic membrane fractions; antigen is human transferrin receptor protein 1 (TfR1) (antibody, V domains shown)
VH: EVLLQQSGTELVRPGALVKLSCKASGFNIQDLYIHWVKQRPEQGLEWIGWIDPETDNTIYDPKFQGKASITADTSSNTAYLQLSSLTSEDTAMYYCSTGLLQWYFDVWGAGTAVTVSS
VL: DIVMTQSPSSLAMSIGQKVTMRCKSSQSLLNSYNQKNCLAWYQQKPGQSPKLLLYFVSTRESGVPDRFIGSGSGTDFTLTISSVQAEDLADYFCQQHYSTPLTFGAGTKLELK
staining intensity, IKE-treated vs vehicle samples [1]: did not detect its antigen; also recorded: no difference
